Results taken from patent US20060257938A1, “Method of screening for drugs that block ligand binding to a lipid binding protein” (priority 2005, published 2006).
Several values for one entry are separate records, joined by “and”; a condition that tells them apart may be missing. Equal entries are not always repeated.

Key:
Format in all cases: binding
Conditions in all cases: response relative to ADIFAB2
[1] = Probe fluorescence ratio response to linolenic acid relative to ADIFAB2
From the text: (§1) In an alternate preferred embodiment, the protein is rI-FABP that has Ala substituted for Leu at position 72 (rI-FABP-L72A) with the resulting probe named ADIFAB2. […] Other probes useful in embodiments of the invention are shown in Tables 1-6 and are also described in U.S. application Ser. No. 11/085,792, filed Mar. 21, 2005 which is incorporated herein by reference. The indicated substitutions are with reference to the ADIFAB protein of SEQ ID NO: 2.
(§2) ADIFAB2 also has an altered spectral response, making it especially useful for measurements of FFAu in blood samples (Apple et al, Clinical Proteomics, (2004) 1:41-44, U.S. patent application Ser. No. 10/670,958). The wavelengths at the maximum intensities emitted by these fluorescently-labeled I-FABP's in the absence of FFA is about 420 to 480 nm. The emission wavelengths at the maximum intensities emitted by these fluorescently-labeled I-FABP's with FFA bound are between about 495 to 580 nm. Experiments typically involve measuring the fluorescence response within both emission maxima or at wavelengths for which the effect of interfering molecules such as hemoglobin can be eliminated as described in U.S. application Ser. No. 10/670958 and PCT/US2004/030521 and the calculation of the ratio ‘R’ of the two fluorescence intensities. The baseline value for this ratio, measured in the absence of analyte, is designated R0.
(§3) The intensity ratio (“R” value) is determined as follows. The ratio is calculated using the following formula: R=Fλ1/Fλ2 wherein, Fλ1 is the measured fluorescence intensities (intensity of sample with probe present minus intensity of sample without probe present) at wavelength 1 and Fλ2 is the measured fluorescence intensities (intensity of sample with probe present minus intensity of sample without probe present) at wavelength 2. Then, for a given probe, ΔR, the difference in R value between the measurement in the presence of the test compound (agent) and in the absence of the test compound (agent), is calculated as follows: ΔR=R+agent−R0 In some embodiments, the ΔR value may then be compared to some reference, for example, an agent with a known affinity for a given probe, by ΔR/ΔRreference. Measurements of fluorescence intensities are obtained using standard techniques.

[2] = Probe fluorescence ratio response to palmitic acid relative to ADIFAB2
From the text: as §1, §2, §3

[3] = Probe fluorescence ratio response to arachidonic acid relative to ADIFAB2
From the text: as §1, §2, §3

[4] = Probe fluorescence ratio response to oleic acid relative to ADIFAB2
From the text: as §1, §2, §3

[5] = Probe fluorescence ratio response to linoleic acid relative to ADIFAB2
From the text: as §1, §2, §3

Molecule | DR/DR LNA [1] | DR/DR PA [2] | DR/DR AA ([3]; arachidonic acid) | DR/DR OA [4] | DR/DR LA [5] | DR/DR AA ([3]; Arachidonic acid)
117E, 72A (protein, listed as Rattus norvegicus, PEPTIDE (1)...(131) wild-type rat intestinal fatty acid binding protein) AFDGTWKVDRNENYEKFMEKMGINVVKRKLGAHDNLKLTITQEGNKFTVKESSNFRNIDVVFELGVDFAYSAADGTELTGTWTMEGNKLVGKFKRVDNGKELIAVREISGNELIQTETYEGVEAKRIFKKE | 0.64 and 0.638 | 0.40 and 0.402 | 0.65 and 0.656 | 0.65 and 0.659 | 0.76 and 0.753 | –
117N, 72A (protein, listed as Rattus norvegicus, PEPTIDE (1)...(131) wild-type rat intestinal fatty acid binding protein) AFDGTWKVDRNENYEKFMEKMGINVVKRKLGAHDNLKLTITQEGNKFTVKESSNFRNIDVVFELGVDFAYSAADGTELTGTWTMEGNKLVGKFKRVDNGKELIAVREISGNELIQTNTYEGVEAKRIFKKE | 1.37 | 1.19 | 1.33 | 1.40 | 1.35 | –
102D, 72A (protein, listed as Rattus norvegicus, PEPTIDE (1)...(131) wild-type rat intestinal fatty acid binding protein) AFDGTWKVDRNENYEKFMEKMGINVVKRKLGAHDNLKLTITQEGNKFTVKESSNFRNIDVVFELGVDFAYSAADGTELTGTWTMEGNKLVGKFKRVDNGKEDIAVREISGNELIQTYTYEGVEAKRIFKKE | 0.61 | 0.28 | 0.52 | 0.59 | 0.63 | –
117I, 72A (protein, listed as Rattus norvegicus, PEPTIDE (1)...(131) wild-type rat intestinal fatty acid binding protein) AFDGTWKVDRNENYEKFMEKMGINVVKRKLGAHDNLKLTITQEGNKFTVKESSNFRNIDVVFELGVDFAYSAADGTELTGTWTMEGNKLVGKFKRVDNGKELIAVREISGNELIQTITYEGVEAKRIFKKE | 0.68 and 0.666 | 0.41 and 0.408 | 0.68 and 0.674 | 0.67 and 0.676 | 0.80 and 0.789 | –
117P, 72A (protein, listed as Rattus norvegicus, PEPTIDE (1)...(131) wild-type rat intestinal fatty acid binding protein) AFDGTWKVDRNENYEKFMEKMGINVVKRKLGAHDNLKLTITQEGNKFTVKESSNFRNIDVVFELGVDFAYSAADGTELTGTWTMEGNKLVGKFKRVDNGKELIAVREISGNELIQTPTYEGVEAKRIFKKE | 0.83 | 0.38 | 0.80 | 0.73 | 0.86 | –
117L, 72A (protein, listed as Rattus norvegicus, PEPTIDE (1)...(131) wild-type rat intestinal fatty acid binding protein) AFDGTWKVDRNENYEKFMEKMGINVVKRKLGAHDNLKLTITQEGNKFTVKESSNFRNIDVVFELGVDFAYSAADGTELTGTWTMEGNKLVGKFKRVDNGKELIAVREISGNELIQTLTYEGVEAKRIFKKE | 0.39 | 0.29 | 0.38 | 0.35 | 0.43 | –
74F, 72A (protein, listed as Rattus norvegicus, PEPTIDE (1)...(131) wild-type rat intestinal fatty acid binding protein) AFDGTWKVDRNENYEKFMEKMGINVVKRKLGAHDNLKLTITQEGNKFTVKESSNFRNIDVVFELGVDFAYSAAFGTELTGTWTMEGNKLVGKFKRVDNGKELIAVREISGNELIQTYTYEGVEAKRIFKKE | 1.36 and 1.04 | 1.23 and 0.93 | 0.44 | – | 1.19 and 0.67 | 1.02
117M, 72A (protein, listed as Rattus norvegicus, PEPTIDE (1)...(131) wild-type rat intestinal fatty acid binding protein) AFDGTWKVDRNENYEKFMEKMGINVVKRKLGAHDNLKLTITQEGNKFTVKESSNFRNIDVVFELGVDFAYSAADGTELTGTWTMEGNKLVGKFKRVDNGKELIAVREISGNELIQTMTYEGVEAKRIFKKE | 1.36 | 1.14 | 1.27 | 1.32 | 1.31 | –
117Q, 72A (protein, listed as Rattus norvegicus, PEPTIDE (1)...(131) wild-type rat intestinal fatty acid binding protein) AFDGTWKVDRNENYEKFMEKMGINVVKRKLGAHDNLKLTITQEGNKFTVKESSNFRNIDVVFELGVDFAYSAADGTELTGTWTMEGNKLVGKFKRVDNGKELIAVREISGNELIQTQTYEGVEAKRIFKKE | 1.24 and 1.236 | 0.63 and 0.631 | 1.21 and 1.214 | 1.13 and 1.134 | 1.37 and 1.374 | –
117F, 72A (protein, listed as Rattus norvegicus, PEPTIDE (1)...(131) wild-type rat intestinal fatty acid binding protein) AFDGTWKVDRNENYEKFMEKMGINVVKRKLGAHDNLKLTITQEGNKFTVKESSNFRNIDVVFELGVDFAYSAADGTELTGTWTMEGNKLVGKFKRVDNGKELIAVREISGNELIQTFTYEGVEAKRIFKKE | 1.38 | 1.20 | 1.33 | 1.37 | 1.36 | –
117G, 72A (protein, listed as Rattus norvegicus, PEPTIDE (1)...(131) wild-type rat intestinal fatty acid binding protein) AFDGTWKVDRNENYEKFMEKMGINVVKRKLGAHDNLKLTITQEGNKFTVKESSNFRNIDVVFELGVDFAYSAADGTELTGTWTMEGNKLVGKFKRVDNGKELIAVREISGNELIQTGTYEGVEAKRIFKKE | 0.85 | 0.39 | 0.88 | 0.84 | 0.92 | –
117H, 72A (protein, listed as Rattus norvegicus, PEPTIDE (1)...(131) wild-type rat intestinal fatty acid binding protein) AFDGTWKVDRNENYEKFMEKMGINVVKRKLGAHDNLKLTITQEGNKFTVKESSNFRNIDVVFELGVDFAYSAADGTELTGTWTMEGNKLVGKFKRVDNGKELIAVREISGNELIQTHTYEGVEAKRIFKKE | 0.94 and 0.924 | 0.63 and 0.659 | 0.90 and 0.913 | 1.01 and 1.012 | 1.06 and 1.056 | –
117K, 72A (protein, listed as Rattus norvegicus, PEPTIDE (1)...(131) wild-type rat intestinal fatty acid binding protein) AFDGTWKVDRNENYEKFMEKMGINVVKRKLGAHDNLKLTITQEGNKFTVKESSNFRNIDVVFELGVDFAYSAADGTELTGTWTMEGNKLVGKFKRVDNGKELIAVREISGNELIQTKTYEGVEAKRIFKKE | 0.37 | 0.22 | 0.34 | 0.04 | 0.43 | –
117R, 72A (protein, listed as Rattus norvegicus, PEPTIDE (1)...(131) wild-type rat intestinal fatty acid binding protein) AFDGTWKVDRNENYEKFMEKMGINVVKRKLGAHDNLKLTITQEGNKFTVKESSNFRNIDVVFELGVDFAYSAADGTELTGTWTMEGNKLVGKFKRVDNGKELIAVREISGNELIQTRTYEGVEAKRIFKKE | 0.70 | 0.31 | 0.64 | 0.61 | 0.70 | –
